These results are taken from US20250145711A1 (Janssen / Centocor, published 2025).

The target in test [1] is T1, Human CD79b long isoform, recombinant extracellular domain (CD9W8.001) (human, UniProt P40259 29-159).
T1 construct: extracellular domain; also called hu CD79b long
T1 sequence (looked up): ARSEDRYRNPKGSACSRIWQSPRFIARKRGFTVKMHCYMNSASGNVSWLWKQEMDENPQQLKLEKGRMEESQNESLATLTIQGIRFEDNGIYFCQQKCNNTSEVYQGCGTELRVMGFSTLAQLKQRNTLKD
The experiment in a line: SPR Biacore 8K, antibody captured by anti-human Fc, CD79b in solution, 25 C, 1:1 Langmuir. How it is done:
(§1) General Protocol for SPR Affinity Assessment: Affinity assessment of the bispecific and trispecific constructs against human CD79b were measured using recombinantly expressed extracellular domain of CD79b short and long isoforms (CD9W7.001 and CD9W8.001, respectively) by Surface Plasmon Resonance (SPR) using a Biacore 8 k SPR system (Biacore) at 25° C. in HBSP+ buffer. Cross-reactivity of the same antibody panel was also assessed against cyno and mouse antigens (CD9W1.001 and CD9W105.001, respectively). Briefly, a C1 sensor chip was immobilized with anti-human Fc (target immobilization levels of >400 RU) using vendor recommended amino coupling protocol. The test antibodies were captured through immobilized anti-Fc and was followed by the injection of different CD79b constructs at different concentration series (human CD79b short and long isoforms: 30 nM-0.37 nM at 3-fold dilutions; cyno and mouse CD79b: 3000 nM-37 nM at 3-fold dilutions). The association and dissociation phases were measured for 2 or 3 minutes and 30 minutes, respectively.
(§2) The raw binding sensorgrams were processed using Biacore Insight software (Biacore) by double-referencing and the processed sensorgrams were analyzed for cross-reactivity and fitted to a 1:1 Langmuir model to obtain on-rates, off-rates and affinities.

In test [2] the target is T2, Human CD79b short isoform, recombinant extracellular domain (CD9W7.001) (human, UniProt P40259 29-159).
T2 chain: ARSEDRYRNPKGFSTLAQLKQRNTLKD
The description is as above. How it is done:
as §1, §2

Test [3] deals with T3, Human CD79b, endogenous on diffuse large B-cell lymphoma cell lines (human, UniProt P40259 29-229).
T3 construct: On HBL-1, OCI-LY10 and Carnaval cells, which also carry CD20; also called Igβ
T3 sequence: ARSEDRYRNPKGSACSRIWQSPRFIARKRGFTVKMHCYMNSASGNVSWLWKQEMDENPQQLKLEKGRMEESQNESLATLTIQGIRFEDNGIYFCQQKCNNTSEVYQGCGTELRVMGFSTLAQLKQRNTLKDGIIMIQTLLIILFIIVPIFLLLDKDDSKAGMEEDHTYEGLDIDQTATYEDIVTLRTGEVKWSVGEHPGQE
Nature of the test: flow cytometry on OCI-LY10 cells (endogenous CD79b and CD20; the trispecific also has a CD20 arm). For orientation: In flow cytometry, cells or beads pass a laser one at a time.

The target of test [4] is T3, Human CD79b, endogenous on diffuse …. The experiment in a line: flow cytometry on Carnaval cells (endogenous CD79b and CD20; the trispecific also has a CD20 arm).
The target is the same in test [5]. Nature of the test: flow cytometry on HBL-1 cells (endogenous CD79b and CD20; the trispecific also has a CD20 arm).
The target of the next test is T4, recombinant human PSMA (human, UniProt Q04609 44-750).
T4 construct: also called hu PSMA; prostate-specific membrane antigen
Nature of the test: SPR (Biacore 8K), antibody captured on anti-Fc, PSMA in solution; average of 2. How it is done: (§3) The binding affinity of anti-PSMA to the recombinant human or cynomolgus PSMA was determined by surface plasmon resonance (SPR) using a Biacore 8K instrument (ELN PSMA-00721). The antibodies were captured on a goat anti-Fc antibody-modified C1 chip and titrated with 3-fold serial dilutions of PSMA antigen spanning concentrations of 100 nM to 3.7 nM (human PSMA) or […] 22.2-600 nM for cyno PSMA. The association and dissociation were monitored for 3 and 60 minutes, respectively, using a flow rate of 50 μL/min. Raw binding data was referenced by subtracting the analyte binding signals from blanks and analyzed using a 1:1 Langmuir binding model by the Biacore Insight evaluation software to obtain the kinetics which were used to calculate the binding affinity. The anti-PSMA were captured using an anti-human Fc antibody and the antigens were injected in solution.
In general terms: SPR reads the build-up and loss of mass on a sensor chip optically.

Test [6] has as its target T5, recombinant cynomolgus PSMA (cynomolgus, UniProt A0A2K5VNZ0 44-750).
T5 construct: also called cy PSMA; cyno PSMA
Nature of the test: SPR (Biacore 8K), antibody captured on anti-Fc, PSMA in solution; average of 3. How it is done:
as §3

T4 sequence (Q04609 44-750 limits assumed): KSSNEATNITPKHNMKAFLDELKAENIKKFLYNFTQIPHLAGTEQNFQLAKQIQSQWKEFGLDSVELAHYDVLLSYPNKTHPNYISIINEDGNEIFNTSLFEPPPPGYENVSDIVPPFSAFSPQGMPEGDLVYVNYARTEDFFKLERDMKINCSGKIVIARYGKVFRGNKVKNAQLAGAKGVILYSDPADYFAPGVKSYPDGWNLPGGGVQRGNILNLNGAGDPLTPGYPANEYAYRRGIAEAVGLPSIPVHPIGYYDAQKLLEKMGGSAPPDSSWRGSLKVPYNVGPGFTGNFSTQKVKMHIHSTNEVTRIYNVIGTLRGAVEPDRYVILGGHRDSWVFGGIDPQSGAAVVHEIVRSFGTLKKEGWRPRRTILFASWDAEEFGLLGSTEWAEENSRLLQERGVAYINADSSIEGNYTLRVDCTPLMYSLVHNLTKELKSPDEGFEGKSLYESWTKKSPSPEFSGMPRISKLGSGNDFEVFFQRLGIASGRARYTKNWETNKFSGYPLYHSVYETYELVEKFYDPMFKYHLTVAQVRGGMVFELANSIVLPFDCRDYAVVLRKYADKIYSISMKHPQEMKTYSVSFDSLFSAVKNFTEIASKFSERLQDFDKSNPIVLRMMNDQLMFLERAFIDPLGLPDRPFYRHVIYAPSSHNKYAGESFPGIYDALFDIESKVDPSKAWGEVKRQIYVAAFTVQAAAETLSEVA

B1: C923B74 (other)
heavy: QVQLQQSGPGLVKPSQTLSLTCAISGDSVSSNSATWNWIRQSPSRGLEWLGRTYYRSKWYNDYTVSVKSRITINPDTSKNQFSLQLNSVTPEDTAVYYCTRVDIAFDYWGQGTLVTVSSASTKGPSVFPLAPSSKSTSGGTAALGCLVKDYFPEPVTVSWNSGALTSGVHTFPAVLQSSGLYSLSSVVTVPSSSLGTQTYICNVNHKPSNTKVDKKVEPKSCDKTHTCPPCPAPEAAGGPSVFLFPPKPKDTLMISRTPEVTCVVVSVSHEDPEVKFNWYVDGVEVHNAKTKPREEQYNSTYRVVSVLTVLHQDWLNGKEYKCKVSNKALPAPIEKTISKAKGQPREPQVYTLPPSREEMTKNQVSLSCAVKGFYPSDIAVEWESNGQPENNYKTTPPVLDSDGSFFLVSKLTVDKSRWQQGNVFSCSVMHEALHNRFTQKSLSLSPGK
light: QTVVTQPPSVSEAPRQRVTISCSGSSSNIGNHGVNWYQQLPGKAPKLLIYNDDLLPSGVSDRFSGSTSGTSGSLAISGLQSEDEADYYCAAWDDSLNGVVFGGGTKLTVLGQPKAAPSVTLFPPSSEELQANKATLVCLISDFYPGAVTVAWKADSSPVKAGVETTTPSKQSNNKYAASSYLSLTPEQWKSHRSYSCQVTHEGSTVEKTVAPTECS
chain: EIVLTQSPATLSASPGERVTLSCSASSSVSYMNWYQQKPGQAPRRWIYDSSKLASGVPARFSGSGSGRDYTLTISSLEPEDFAVYYCQQWSRNPPTFGGGTKVEIKGGSEGKSSGSGSESKSTGGSQVQLVQSGAEVKKPGSSVKVSCKASGYTFTRSTMHWVKQAPGQGLEWIGYINPSSAYTNYNQKFQGRVTLTADKSTSTAYMELSSLRSEDTAVYYCASPQVHYDYAGFPYWGQGTLVTVSSEPKSSDKTHTCPPCPAPEAAGGPSVFLFPPKPKDTLMISRTPEVTCVVVSVSHEDPEVKFNWYVDGVEVHNAKTKPREEQYNSTYRVVSVLTVLHQDWLNGKEYKCKVSNKALPAPIEKTISKAKGQPREPQVYTLPPSREEMTKNQVSLWCLVKGFYPSDIAVEWESNGQPENNYKTTPPVLDSDGSFFLYSKLTVDKSRWQQGNVFSCSVMHEALHNHYTQKSLSLSPGKGGSEGKSSGSGSESKSTGGSAIQLTQSPSSLSASVGDRVTITCRASSSVSYIHWFQQKPGKAPKPLIYATSNLASGVPSRFSGSGSGTDFTLTISSLQPEDFATYYCQQWTSNPPTFGQGTKLEIKGGSEGKSSGSGSESKSTGGSQVQLVQSGAEVKKPGSSVKVSCKASGYTFTSYNMHWVRQAPGQGLEWMGAIYPGNGDTSYAQKFQGRVTITADKSTSTAYMELSSLRSEDTAVYYCARSTYYGGDWYFNVWGQGTLVTVSS
notes: Trispecific IgG1 antibody; HC1/LC form the CD79b Fab; HC2 is CD3 scFv-Fc-linker-CD20 scFv; also called CD79bxCD20xCD3 trispecific; CD9B330-N31S / CD3B2030-N106A-scFv-LH-C20B22
As for B1, the results for the Kd in test [1] and in test [2] were 0.023 nM and 0.39 nM, respectively. The EC50 was 66 nM in test [3], 23 nM in test [4] and 52 nM in test [5].

B2: C923B99 (other)
heavy: QVQLQESGPGLVKPSQTLSLTCTVSGVSISNYYWSWIRQPPGKGLEWIGRISPSGRTNYNPSLKSRVTMSLDASKNQFSLKLSSVTAADTAVYYCARGEYSGTYSYSFDIWGQGTMVTVSSASTKGPSVFPLAPSSKSTSGGTAALGCLVKDYFPEPVTVSWNSGALTSGVHTFPAVLQSSGLYSLSSVVTVPSSSLGTQTYICNVNHKPSNTKVDKKVEPKSCDKTHTCPPCPAPEAAGGPSVFLFPPKPKDTLMISRTPEVTCVVVSVSHEDPEVKFNWYVDGVEVHNAKTKPREEQYNSTYRVVSVLTVLHQDWLNGKEYKCKVSNKALPAPIEKTISKAKGQPREPQVYTLPPSREEMTKNQVSLSCAVKGFYPSDIAVEWESNGQPENNYKTTPPVLDSDGSFFLVSKLTVDKSRWQQGNVFSCSVMHEALHNRFTQKSLSLSPGK
light: DIQMTQSPSSLSASVGDRVTITCRSSQSLFDSDDGNTYLDWFQQKPGQSPKLLIQTLSYRASGVPSRFSGSGSGTDFTLTISSLQPEDFATYYCMQRMEFPLTFGGGTKVEIKRTVAAPSVFIFPPSDEQLKSGTASVVCLLNNFYPREAKVQWKVDNALQSGNSQESVTEQDSKDSTYSLSSTLTLSKADYEKHKVYACEVTHQGLSSPVTKSFNRGEC
chain: EIVLTQSPATLSASPGERVTLSCSASSSVSYMNWYQQKPGQAPRRWIYDSSKLASGVPARFSGSGSGRDYTLTISSLEPEDFAVYYCQQWSRNPPTFGGGTKVEIKGGSEGKSSGSGSESKSTGGSQVQLVQSGAEVKKPGSSVKVSCKASGYTFTRSTMHWVKQAPGQGLEWIGYINPSSAYTNYNQKFQGRVTLTADKSTSTAYMELSSLRSEDTAVYYCASPQVHYDYAGFPYWGQGTLVTVSSEPKSSDKTHTCPPCPAPEAAGGPSVFLFPPKPKDTLMISRTPEVTCVVVSVSHEDPEVKFNWYVDGVEVHNAKTKPREEQYNSTYRVVSVLTVLHQDWLNGKEYKCKVSNKALPAPIEKTISKAKGQPREPQVYTLPPSREEMTKNQVSLWCLVKGFYPSDIAVEWESNGQPENNYKTTPPVLDSDGSFFLYSKLTVDKSRWQQGNVFSCSVMHEALHNHYTQKSLSLSPGKGGSEGKSSGSGSESKSTGGSAIQLTQSPSSLSASVGDRVTITCRASSSVSYIHWFQQKPGKAPKPLIYATSNLASGVPSRFSGSGSGTDFTLTISSLQPEDFATYYCQQWTSNPPTFGQGTKLEIKGGSEGKSSGSGSESKSTGGSQVQLVQSGAEVKKPGSSVKVSCKASGYTFTSYNMHWVRQAPGQGLEWMGAIYPGNGDTSYAQKFQGRVTITADKSTSTAYMELSSLRSEDTAVYYCARSTYYGGDWYFNVWGQGTLVTVSS
notes: Trispecific IgG1 antibody; HC1/LC form the CD79b Fab; HC2 is CD3 scFv-Fc-linker-CD20 scFv; also called CD79bxCD20xCD3 trispecific; CD9B643 / CD3B2030-N106A-scFv-LH-C20B22
As to B2, the dissociation constant (Kd) worked out at 0.04 nM in test [1] and 0.27 nM in test [2]. Also, the EC50 in test [3] came out at 2 nM; in test [4] it was 6 nM; in test [5] it was 8 nM.

B3: PS3B1391 (bispecific antibody, human IgG1, kappa, L234A L235A)
chain: EIVLTQSPATLSASPGERVTLSCSASSSVSYMNWYQQKPGQAPRRWIYDSSKLASGVPARFSGSGSGRDYTLTISSLEPEDFAVYYCQQWSRNPPTFGGGTKVEIKGGSEGKSSGSGSESKSTGGSQVQLVQSGAEVKKPGSSVKVSCKASGYTFTRSTMHWVKQAPGQGLEWIGYINPSSAYTNYNQKFQGRVTLTADKSTSTAYMELSSLRSEDTAVYYCASPQVHYDYAGFPYWGQGTLVTVSSEPKSSDKTHTCPPCPAPEAAGGPSVFLFPPKPKDTLMISRTPEVTCVVVSVSHEDPEVKFNWYVDGVEVHNAKTKPREEQYNSTYRVVSVLTVLHQDWLNGKEYKCKVSNKALPAPIEKTISKAKGQPREPQVYTLPPSREEMTKNQVSLWCLVKGFYPSDIAVEWESNGQPENNYKTTPPVLDSDGSFFLYSKLTVDKSRWQQGNVFSCSVMHEALHNHYTQKSLSLSPGK
heavy: EVQLVESGGGLVKPGGSLRLSCVASGFTFSFYSMNWVRQAPGKGLDWVSSISSSGNYIYYADSVKGRFTISRDNAKNSLHLHMNSLKAEDTAMYFCARSYSGSYDAFDFWGQGTMVTVSSASTKGPSVFPLAPSSKSTSGGTAALGCLVKDYFPEPVTVSWNSGALTSGVHTFPAVLQSSGLYSLSSVVTVPSSSLGTQTYICNVNHKPSNTKVDKKVEPKSCDKTHTCPPCPAPEAAGGPSVFLFPPKPKDTLMISRTPEVTCVVVSVSHEDPEVKFNWYVDGVEVHNAKTKPREEQYNSTYRVVSVLTVLHQDWLNGKEYKCKVSNKALPAPIEKTISKAKGQPREPQVYTLPPSREEMTKNQVSLSCAVKGFYPSDIAVEWESNGQPENNYKTTPPVLDSDGSFFLVSKLTVDKSRWQQGNVFSCSVMHEALHNRFTQKSLSLSPGK
light: EIVMTQSPGTLSLSPGERATLSCRASQSVSSSFLAWYQQKPGQAPRLLISGASSRATGIPDRFSVSGSGTDFTLTISRLEPEDFAVYYCQQYGVSPWTFGQGTKVEIKRTVAAPSVFIFPPSDEQLKSGTASVVCLLNNFYPREAKVQWKVDNALQSGNSQESVTEQDSKDSTYSLSSTLTLSKADYEKHKVYACEVTHQGLSSPVTKSFNRGEC
notes: HC 1: N-term scFv LH CD3B2030 N106A; HC 2: N-term Fab PSMHB49SC1133_011A11_1; LC1 is given as NA; also called PS3B1391.002
Turning to B3, in the test with recombinant human PSMA, the Kd was 0.1 nM, the koff turned out to be 4.8e-05 s⁻¹ and the kon came to 480000 M⁻¹ s⁻¹. Further, in test [6], the Kd turned out to be 0.126 nM, the koff turned out to be 1.96e-05 s⁻¹ and the on-rate constant (kon) amounted to 157000 M⁻¹ s⁻¹.

In general, Kd refers to the concentration at which binding is half-saturated. One may read the EC50 as the concentration at which the effect is half-maximal. Usually koff stands for a measure of how fast the partners let go of each other. One may read the kon as the second-order rate constant of association.
